Experiments:
Experiment in all cases: cell-based or functional assay
[1] = biological target: HIV-1 Env of isolate MGRM-Chronic-B-011 (subtype B) (HIV-1)
[2] = biological target: HIV-1 Env of isolate 92 BR 020 (subtype B) (HIV-1)
[3] = biological target: HIV-1 Env of isolate MGRM-F1-022 (subtype F) (HIV-1)
[4] = biological target: HIV-1 Env of isolate APV_13 (subtype B) (HIV-1)
[5] = biological target: HIV-1 Env of isolate MGRM-D-029 (subtype D) (HIV-1)
[6] = biological target: HIV-1 Env of isolate MGRM-F1-021 (subtype F) (HIV-1)
[7] = biological target: HIV-1 Env of isolate QH0692.42 (subtype B) (HIV-1)
[8] = biological target: MuLV envelope (control pseudovirus)
HIV-1 ZM214 Env (HIV-1) = biological target: HIV-1 ZM214 Env (HIV-1)
HIV-1 CAP45 Env (HIV-1) = biological target: HIV-1 CAP45 Env (HIV-1)
[9] = biological target: HIV-1 REJ04541 Env (HIV-1)
HIV-1 DU422 Env (HIV-1) = biological target: HIV-1 DU422 Env (HIV-1)
HIV-1 ZM249 Env (HIV-1) = biological target: HIV-1 ZM249 Env (HIV-1)
[10] = biological target: HIV-1 THRO.18 Env (HIV-1)
HIV-1 ZM233 Env (HIV-1) = biological target: HIV-1 ZM233 Env (HIV-1)
HIV-1 Du172 Env (HIV-1) = biological target: HIV-1 Du172 Env (HIV-1)
HIV-1 TR0.11 Env (HIV-1) = biological target: HIV-1 TR0.11 Env (HIV-1)
HIV-1 CAAN Env (HIV-1) = biological target: HIV-1 CAAN Env (HIV-1)
[11] = biological target: HIV-1 JR-FL Env E168K (HIV-1)
HIV-1 DU156 Env (HIV-1) = biological target: HIV-1 DU156 Env (HIV-1)
HIV-1 AC10 Env (HIV-1) = biological target: HIV-1 AC10 Env (HIV-1)
HIV-1 PVO.4 Env (HIV-1) = biological target: HIV-1 PVO.4 Env (HIV-1)

Chain of 1443_C16 (PG16) (TCN-116) (antibody) (VH): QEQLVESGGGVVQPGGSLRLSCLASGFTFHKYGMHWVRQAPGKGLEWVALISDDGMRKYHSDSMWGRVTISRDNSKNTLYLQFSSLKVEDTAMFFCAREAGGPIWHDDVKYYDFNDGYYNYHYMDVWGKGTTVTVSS
Chain of 1443_C16 (PG16) (TCN-116) (antibody) (VL): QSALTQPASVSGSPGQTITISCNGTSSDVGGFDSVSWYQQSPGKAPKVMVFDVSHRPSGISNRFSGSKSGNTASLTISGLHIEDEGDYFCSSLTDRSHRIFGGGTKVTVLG

Question: How did the IC50 [1] turn out when PGV04 (antibody) was run?
Answer: The IC50 was 0.497 µg/mL.

Question: What about the IC50 [2] of the same substance?
Answer: Its IC50 is 0.25 µg/mL.

Question: And the IC50 (pseudovirus neutralization) [3]?
Answer: Its IC50 (pseudovirus neutralization) is 0.072 µg/mL.

Question: And the IC50 [4]?
Answer: The IC50 was 1.23 µg/mL.

Question: What about the IC50 (pseudovirus neutralization) [5] of the same substance?
Answer: The IC50 (pseudovirus neutralization) was 1.56 µg/mL.

Question: What about the IC50 (pseudovirus neutralization) [6] of the same substance?
Answer: Its IC50 (pseudovirus neutralization) is 0.031 µg/mL.

Question: And the IC50 [7]?
Answer: Its IC50 is 1.9 µg/mL.

Question: VRC01 (antibody) was tested. Which IC50 [1] did it give?
Answer: The IC50 was 0.587 µg/mL.

Question: What about the IC50 [2] of the same substance?
Answer: Its IC50 is 0.29 µg/mL.

Question: And the IC50 (pseudovirus neutralization) [3]?
Answer: Its IC50 (pseudovirus neutralization) is 0.055 µg/mL.

Question: What about the IC50 [4] of the same substance?
Answer: Its IC50 is 0.657 µg/mL.

Question: What about the IC50 (pseudovirus neutralization) [5] of the same substance?
Answer: The IC50 (pseudovirus neutralization) was 3.22 µg/mL.

Question: And the IC50 (pseudovirus neutralization) [6]?
Answer: The IC50 (pseudovirus neutralization) was 0.039 µg/mL.

Question: What about the IC50 [7] of the same substance?
Answer: Its IC50 is 1.19 µg/mL.

Question: With 1443_C16 (PG16) (TCN-116) (antibody) as the substance, how does the IC50, TZM-bl pseudovirus neutralization [8] read?
Answer: Its IC50, TZM-bl pseudovirus neutralization is greater than 25 µg/mL.

Question: What about the IC50, TZM-bl pseudovirus neutralization (HIV-1 ZM214 Env (HIV-1)) of the same substance?
Answer: Its IC50, TZM-bl pseudovirus neutralization is greater than 25 µg/mL.

Question: And the IC50, TZM-bl pseudovirus neutralization (HIV-1 CAP45 Env (HIV-1))?
Answer: Its IC50, TZM-bl pseudovirus neutralization is less than 0.01 µg/mL.

Question: What about the IC50, TZM-bl pseudovirus neutralization [9] of the same substance?
Answer: The IC50, TZM-bl pseudovirus neutralization was less than 0.01 µg/mL.

Question: What about the IC50, TZM-bl pseudovirus neutralization (HIV-1 DU422 Env (HIV-1)) of the same substance?
Answer: The IC50, TZM-bl pseudovirus neutralization was 0.59 µg/mL.

Question: What about the IC50, TZM-bl pseudovirus neutralization (HIV-1 ZM249 Env (HIV-1)) of the same substance?
Answer: Its IC50, TZM-bl pseudovirus neutralization is less than 0.01 µg/mL.

Question: What about the IC50, TZM-bl pseudovirus neutralization [10] of the same substance?
Answer: The IC50, TZM-bl pseudovirus neutralization was 2.19 µg/mL.

Question: What about the IC50, TZM-bl pseudovirus neutralization (HIV-1 ZM233 Env (HIV-1)) of the same substance?
Answer: Its IC50, TZM-bl pseudovirus neutralization is less than 0.01 µg/mL.

Question: What about the IC50, TZM-bl pseudovirus neutralization (HIV-1 Du172 Env (HIV-1)) of the same substance?
Answer: The IC50, TZM-bl pseudovirus neutralization was less than 0.01 µg/mL.

Question: What about the IC50, TZM-bl pseudovirus neutralization (HIV-1 TR0.11 Env (HIV-1)) of the same substance?
Answer: Its IC50, TZM-bl pseudovirus neutralization is 3.61 µg/mL.

Question: And the IC50, TZM-bl pseudovirus neutralization (HIV-1 CAAN Env (HIV-1))?
Answer: Its IC50, TZM-bl pseudovirus neutralization is 6.37 µg/mL.

Question: And the IC50, TZM-bl pseudovirus neutralization [11]?
Answer: Its IC50, TZM-bl pseudovirus neutralization is 0.006 µg/mL.

Question: And the IC50, TZM-bl pseudovirus neutralization (HIV-1 DU156 Env (HIV-1))?
Answer: The IC50, TZM-bl pseudovirus neutralization was less than 0.01 µg/mL.

Question: And the IC50, TZM-bl pseudovirus neutralization (HIV-1 AC10 Env (HIV-1))?
Answer: Its IC50, TZM-bl pseudovirus neutralization is less than 0.01 µg/mL.

Question: What about the IC50, TZM-bl pseudovirus neutralization (HIV-1 PVO.4 Env (HIV-1)) of the same substance?
Answer: The IC50, TZM-bl pseudovirus neutralization was 12.3 µg/mL.

Reference: patent publication US20160264649A1
